B1: wild-type (WT) calsequestrin type 1 (CSQ1), rabbit [rabbit] / skeletal triadin 95 kDa (trisk95) [rabbit (endogenous in skeletal muscle SR vesicles)] (parent)
chain 1: EEGLDFPEYDGVDRVINVNAKNYKNVFKKYEVLALLYHEPPEDDKASQRQFEMEELILELAAQVLEDKGVGFGLVDSEKDAAVAKKLGLTEEDSIYVFKEDEVIEYDGEFSADTLVEFLLDVLEDPVELIEGERELQAFENIEDEIKLIGYFKNKDSEHYKAFKEAAEEFHPYIPFFATFDSKVAKKLTLKLNEIDFYEAFMEEPVTIPDKPNSEEEIVNFVEEHRRSTLRKLKPESMYETWEDDMDGIHIVAFAEEADPDGYEFLEILKSVAQDNTDNPDLSIIWIDPDDFPLLVPYWEKTFDIDLSAPQIGVVNVTDADSVWMEMDDEEDLPSAEELEDWLEDVLEGEINTEDDDDEDDDDDDDD
chain 2: MTEITAEGNASTTTTVIDSKNGSVPKSPGKVLKRTVTEDLVTTFSSPAAWLLVIALIITWSAVAVVMFDLVDYKNFSASSIAKMGSDPLKLVHDAVEETTDWIYGFFSLLSDIISSDGDEEDDEGDEDTAKGEIEEPPLKRKDIHKEKIEKQEKPERKIPTKVVHKEKEKEKEKVKEKEKPEKKATHKEKLEKKEKPETKTVTKEEKKARTKEKIEEKTKKEVKGVKQEKVKQTVAKAKEVQKTPKPKEKESKETAAVSKQEQKDQYAFCRYMIDIFVHGDLKPGQSPAIPPPSPTEQASRPTPALPTPEEKEGEKKKAEKKVTTETKKKAEKEDAKKKSEKETDIDMKKKEPGKSPDTKPGTVKVTTQAATKKDEKKEDSKKAKKPAEEQPKGKKQEKKEKHEEPAKSTKKEHAAPSEKQAKAKIERKEEVSAASTKKAVPAKKEEKTTKTVEQETRKEKPGKISSVLKDKELTKEKEVKVPASLKEKGSETKKDEKTSKPEPQIKKEEKPGKEVKPKPPQPQIKKEEKPEQDIMKPEKTALHGKPEEKVLKQVKAVTTEKHVKPKPAKKAEHQEKEPPSIKTDKPKSTSKGMPEVTESGKKKIEKSEKEIKVPARRESHQLQNVTKAEKPARGSKEGFEDVPASKKAKEEAEEVSSTKKQKSPISFFQCVYLDGYNGYGFQFPVTPAQYPGESSGKPNSPGPKQ

Variants of B1 are the subject of the assay. In words: co-immunoprecipitation (CSQ1 IP, Western blot densitometry). The conditions noted are these: with skeletal triadin 95 kDa (trisk95) [rabbit (endogenous in skeletal muscle SR vesicles)]; 1 mM Ca2+; parent: 100; read off a plot.
For the variant chain 1 D363A D365A D367A, the percent of parent (% relative binding) was 84.

Take chain 1 D365A D367A: the percent of parent (% relative binding) amounted to 110.

chain 1 D367A: the percent of parent (% relative binding) came to 86.
